The results in this text go back to publication PMC4627070.

For the data set, the target named is T1, gp32 (gene 32 protein, ssDNA-binding protein) (bacteriophage T4, UniProt P03695 1-301).
T1 sequence: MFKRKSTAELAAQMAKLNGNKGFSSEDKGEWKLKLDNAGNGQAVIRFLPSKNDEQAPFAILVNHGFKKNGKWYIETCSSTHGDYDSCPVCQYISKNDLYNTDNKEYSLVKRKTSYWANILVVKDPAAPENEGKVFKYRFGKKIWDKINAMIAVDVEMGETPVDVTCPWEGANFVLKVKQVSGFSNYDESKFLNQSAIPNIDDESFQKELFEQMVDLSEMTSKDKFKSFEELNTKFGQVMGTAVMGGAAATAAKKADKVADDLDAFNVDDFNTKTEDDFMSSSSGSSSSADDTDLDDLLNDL
Briefly: fluorescence titration.

The Kd is the equilibrium constant for the complex coming apart.

B1: 8P6,7 (ssDNA)
DNA: TTTTTAAT
modifications: 2-aminopurine at positions 6,7 (written as A)
For B1, binding was characterised by a dissociation constant (Kd) of 10.3 ± 1 µM.

B2: 8P4,5 (ssDNA)
DNA: TTTAATTT
modifications: 2-aminopurine at positions 4,5 (written as A)
Regarding B2, the Kd turned out to be 4.2 ± 0.4 µM.

B3: 8P2,3 (ssDNA)
DNA: TAATTTTT
modifications: 2-aminopurine at positions 2,3 (written as A)
Take B3: the Kd came to 3.5 ± 0.4 µM.

B4: 8A6,7 (ssDNA)
DNA: AAAAAAAA
modifications: 2-aminopurine at positions 6,7 (written as A)
As for B4, binding was put at a Kd of 3.2 ± 0.3 µM.

B5: 8A2,3 (ssDNA)
DNA: AAAAAAAA
modifications: 2-aminopurine at positions 2,3 (written as A)
Molecule B5 registered a Kd of 4.1 ± 0.4 µM.
